Data: publication PMC12416549 (2024)

T1: TNFR1 (Homo sapiens, UniProt P19438)
T1 chain: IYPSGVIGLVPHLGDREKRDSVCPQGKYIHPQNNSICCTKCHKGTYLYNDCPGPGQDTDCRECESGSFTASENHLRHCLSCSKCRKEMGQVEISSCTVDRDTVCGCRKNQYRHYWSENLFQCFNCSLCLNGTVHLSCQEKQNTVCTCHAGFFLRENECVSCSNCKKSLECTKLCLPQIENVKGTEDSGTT


Biological target: T1, TNFR1
Assay: yeast display SC50

apparent Kd (screen) [pM]	Binder
490	K66A (designed binder) MTLQELLREEALRRAEAEAFRYALELLAEKFPEQKEYLLDLAEEIESQIRSLSGVDVEDVRKFLDAEWAWVKELLAEHPAELAEVEAARAARLAELRAEVEAKVAA
446	H78K (designed binder) MTLQELLREEALRRAEAEAFRYALELLAEKFPEQKEYLLDLAEEIESQIRSLSGVDVEDVRKFLDKEWAWVKELLAEKPAELAEVEAARAARLAELRAEVEAKVAA
490	A90I (designed binder) MTLQELLREEALRRAEAEAFRYALELLAEKFPEQKEYLLDLAEEIESQIRSLSGVDVEDVRKFLDKEWAWVKELLAEHPAELAEVEAARIARLAELRAEVEAKVAA
490	K103G (designed binder) MTLQELLREEALRRAEAEAFRYALELLAEKFPEQKEYLLDLAEEIESQIRSLSGVDVEDVRKFLDKEWAWVKELLAEHPAELAEVEAARAARLAELRAEVEAGVAA
446	P79M (designed binder) MTLQELLREEALRRAEAEAFRYALELLAEKFPEQKEYLLDLAEEIESQIRSLSGVDVEDVRKFLDKEWAWVKELLAEHMAELAEVEAARAARLAELRAEVEAKVAA
490	V100L (designed binder) MTLQELLREEALRRAEAEAFRYALELLAEKFPEQKEYLLDLAEEIESQIRSLSGVDVEDVRKFLDKEWAWVKELLAEHPAELAEVEAARAARLAELRAELEAKVAA
2730	R61E (designed binder) MTLQELLREEALRRAEAEAFRYALELLAEKFPEQKEYLLDLAEEIESQIRSLSGVDVEDVEKFLDKEWAWVKELLAEHPAELAEVEAARAARLAELRAEVEAKVAA
593	A69K (designed binder) MTLQELLREEALRRAEAEAFRYALELLAEKFPEQKEYLLDLAEEIESQIRSLSGVDVEDVRKFLDKEWKWVKELLAEHPAELAEVEAARAARLAELRAEVEAKVAA
9410	V55D (designed binder) MTLQELLREEALRRAEAEAFRYALELLAEKFPEQKEYLLDLAEEIESQIRSLSGDDVEDVRKFLDKEWAWVKELLAEHPAELAEVEAARAARLAELRAEVEAKVAA
490	V60F (designed binder) MTLQELLREEALRRAEAEAFRYALELLAEKFPEQKEYLLDLAEEIESQIRSLSGVDVEDFRKFLDKEWAWVKELLAEHPAELAEVEAARAARLAELRAEVEAKVAA
1400	A88T (designed binder) MTLQELLREEALRRAEAEAFRYALELLAEKFPEQKEYLLDLAEEIESQIRSLSGVDVEDVRKFLDKEWAWVKELLAEHPAELAEVEATRAARLAELRAEVEAKVAA
4830	E67D (designed binder) MTLQELLREEALRRAEAEAFRYALELLAEKFPEQKEYLLDLAEEIESQIRSLSGVDVEDVRKFLDKDWAWVKELLAEHPAELAEVEAARAARLAELRAEVEAKVAA
653	A69I (designed binder) MTLQELLREEALRRAEAEAFRYALELLAEKFPEQKEYLLDLAEEIESQIRSLSGVDVEDVRKFLDKEWIWVKELLAEHPAELAEVEAARAARLAELRAEVEAKVAA
593	R92T (designed binder) MTLQELLREEALRRAEAEAFRYALELLAEKFPEQKEYLLDLAEEIESQIRSLSGVDVEDVRKFLDKEWAWVKELLAEHPAELAEVEAARAATLAELRAEVEAKVAA
790	V85F (designed binder) MTLQELLREEALRRAEAEAFRYALELLAEKFPEQKEYLLDLAEEIESQIRSLSGVDVEDVRKFLDKEWAWVKELLAEHPAELAEFEAARAARLAELRAEVEAKVAA
446	E99R (designed binder) MTLQELLREEALRRAEAEAFRYALELLAEKFPEQKEYLLDLAEEIESQIRSLSGVDVEDVRKFLDKEWAWVKELLAEHPAELAEVEAARAARLAELRARVEAKVAA
869	R61A (designed binder) MTLQELLREEALRRAEAEAFRYALELLAEKFPEQKEYLLDLAEEIESQIRSLSGVDVEDVAKFLDKEWAWVKELLAEHPAELAEVEAARAARLAELRAEVEAKVAA
539	L52Y (designed binder) MTLQELLREEALRRAEAEAFRYALELLAEKFPEQKEYLLDLAEEIESQIRSYSGVDVEDVRKFLDKEWAWVKELLAEHPAELAEVEAARAARLAELRAEVEAKVAA
1050	L75S (designed binder) MTLQELLREEALRRAEAEAFRYALELLAEKFPEQKEYLLDLAEEIESQIRSLSGVDVEDVRKFLDKEWAWVKELSAEHPAELAEVEAARAARLAELRAEVEAKVAA
718	E58T (designed binder) MTLQELLREEALRRAEAEAFRYALELLAEKFPEQKEYLLDLAEEIESQIRSLSGVDVTDVRKFLDKEWAWVKELLAEHPAELAEVEAARAARLAELRAEVEAKVAA

More lines, now with the values behind:

Binder	apparent Kd (screen) [pM]
E43L (designed binder) MTLQELLREEALRRAEAEAFRYALELLAEKFPEQKEYLLDLALEIESQIRSLSGVDVEDVRKFLDKEWAWVKELLAEHPAELAEVEAARAARLAELRAEVEAKVAA	869
T2Y (designed binder) MYLQELLREEALRRAEAEAFRYALELLAEKFPEQKEYLLDLAEEIESQIRSLSGVDVEDVRKFLDKEWAWVKELLAEHPAELAEVEAARAARLAELRAEVEAKVAA	869
E29H (designed binder) MTLQELLREEALRRAEAEAFRYALELLAHKFPEQKEYLLDLAEEIESQIRSLSGVDVEDVRKFLDKEWAWVKELLAEHPAELAEVEAARAARLAELRAEVEAKVAA	446
E25F (designed binder) MTLQELLREEALRRAEAEAFRYALFLLAEKFPEQKEYLLDLAEEIESQIRSLSGVDVEDVRKFLDKEWAWVKELLAEHPAELAEVEAARAARLAELRAEVEAKVAA	539
Q4F (designed binder) MTLFELLREEALRRAEAEAFRYALELLAEKFPEQKEYLLDLAEEIESQIRSLSGVDVEDVRKFLDKEWAWVKELLAEHPAELAEVEAARAARLAELRAEVEAKVAA	490
E33P (designed binder) MTLQELLREEALRRAEAEAFRYALELLAEKFPPQKEYLLDLAEEIESQIRSLSGVDVEDVRKFLDKEWAWVKELLAEHPAELAEVEAARAARLAELRAEVEAKVAA	539
R8G (designed binder) MTLQELLGEEALRRAEAEAFRYALELLAEKFPEQKEYLLDLAEEIESQIRSLSGVDVEDVRKFLDKEWAWVKELLAEHPAELAEVEAARAARLAELRAEVEAKVAA	593
E25S (designed binder) MTLQELLREEALRRAEAEAFRYALSLLAEKFPEQKEYLLDLAEEIESQIRSLSGVDVEDVRKFLDKEWAWVKELLAEHPAELAEVEAARAARLAELRAEVEAKVAA	1050
R50L (designed binder) MTLQELLREEALRRAEAEAFRYALELLAEKFPEQKEYLLDLAEEIESQILSLSGVDVEDVRKFLDKEWAWVKELLAEHPAELAEVEAARAARLAELRAEVEAKVAA	869
R14I (designed binder) MTLQELLREEALRIAEAEAFRYALELLAEKFPEQKEYLLDLAEEIESQIRSLSGVDVEDVRKFLDKEWAWVKELLAEHPAELAEVEAARAARLAELRAEVEAKVAA	539
K35V (designed binder) MTLQELLREEALRRAEAEAFRYALELLAEKFPEQVEYLLDLAEEIESQIRSLSGVDVEDVRKFLDKEWAWVKELLAEHPAELAEVEAARAARLAELRAEVEAKVAA	1540
E18Q (designed binder) MTLQELLREEALRRAEAQAFRYALELLAEKFPEQKEYLLDLAEEIESQIRSLSGVDVEDVRKFLDKEWAWVKELLAEHPAELAEVEAARAARLAELRAEVEAKVAA	539
R13I (designed binder) MTLQELLREEALIRAEAEAFRYALELLAEKFPEQKEYLLDLAEEIESQIRSLSGVDVEDVRKFLDKEWAWVKELLAEHPAELAEVEAARAARLAELRAEVEAKVAA	368
E16F (designed binder) MTLQELLREEALRRAFAEAFRYALELLAEKFPEQKEYLLDLAEEIESQIRSLSGVDVEDVRKFLDKEWAWVKELLAEHPAELAEVEAARAARLAELRAEVEAKVAA	1050
L38M (designed binder) MTLQELLREEALRRAEAEAFRYALELLAEKFPEQKEYMLDLAEEIESQIRSLSGVDVEDVRKFLDKEWAWVKELLAEHPAELAEVEAARAARLAELRAEVEAKVAA	539
